From patent publication US20120058906A1 (published 2012)
Substitutions are numbered along the chain they refer to. Each block holds one binder with its values, some of them ahead of it.

Columns and labels:
[1] = target: T1, Recombinant Human DLL4 (R&D Systems Cat#1506-D4/CF) (human, UniProt Q9NR61 27-524); assay: MSD ECL titration, Fab 595.8 nM, blank 285
T1 construct: Bought recombinant protein; also called rHuman DLL4; delta-like protein 4

[2] = target: T2, rHuman Erythropoietin R/Fc Chimera, CF (R&D Systems Cat#963-ER) (human, UniProt P19235 25-250); assay: MSD ECL titration, Fab 595.8 nM, blank 285
T2 construct: Bought Fc chimera; also called EPO R/Fc; EPOR; Fc part of the bought chimera not given
T2 sequence: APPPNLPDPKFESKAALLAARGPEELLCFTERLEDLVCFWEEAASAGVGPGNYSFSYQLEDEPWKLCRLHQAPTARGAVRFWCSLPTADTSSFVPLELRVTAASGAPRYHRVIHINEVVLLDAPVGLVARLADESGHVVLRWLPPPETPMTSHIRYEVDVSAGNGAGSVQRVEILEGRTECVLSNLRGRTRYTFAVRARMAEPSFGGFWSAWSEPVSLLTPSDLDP

[3] = target: T3, rHuman CD44/Fc Chimera, CF (R&D Systems Cat#3660-CD) (human, UniProt P16070 21-220); assay: MSD ECL titration, Fab 595.8 nM, blank 285
T3 construct: Bought Fc chimera; Fc part of the bought chimera not given

[4] = target: T4, rHuman P-Cadherin/Fc Chimera, CF (R&D Systems Cat#861-PC) (human, UniProt P22223 108-654); assay: MSD ECL titration, Fab 595.8 nM, blank 285
T4 construct: Bought Fc chimera; Fc part of the bought chimera not given

[5] = target: T5, rHuman HGF R/c-MET/Fc Chimera, CF (R&D Systems Cat#358-MT/CF) (human, UniProt P08581 25-932); assay: MSD ECL titration, Fab 595.8 nM, blank 285
T5 construct: Bought Fc chimera; also called HGF R/Fc; Fc part of the bought chimera not given

[6] = target: T6, rHuman IGF-1 sR (insulin-like growth factor-1 soluble receptor), CF (R&D Systems Cat#391-GR) (human, UniProt P08069 31-932); assay: MSD ECL titration, Fab 595.8 nM, blank 285
T6 construct: Bought soluble receptor; also called IGF-R1

[7] = target: T7, rHuman EGF R/Fc Chimera, CF (R&D Systems Cat#344-ER) (human, UniProt P00533 25-645); assay: MSD ECL titration, Fab 595.8 nM, blank 285
T7 construct: Bought Fc chimera; Fc part of the bought chimera not given

[8] = target: T8, rHuman Notch-1/Fc Chimera, CF (R&D Systems Cat#3647-TK) (human, UniProt P46531 19-526); assay: MSD ECL titration, Fab 595.8 nM, blank 285
T8 construct: Bought Fc chimera; Fc part of the bought chimera not given

[9] = target: T9, rHuman ErbB2/Fc Chimera, CF (R&D Systems Cat#1129-ER) (human, UniProt P04626 23-652); assay: MSD ECL titration, Fab 595.8 nM, blank 285
T9 construct: Bought Fc chimera; also called HER2/neu; Fc part of the bought chimera not given

[10] = target: T10, rHuman IGF-1 sR (insulin-like growth factor-1 soluble receptor), CF (R&D Systems Cat#391-GR) (human, UniProt P08069 31-932); assay: ECL (MSD multi-spot), antigen on plate, Fab 2 nM
T10 construct: Bought soluble receptor; also called IGF-R1

[11] = target: T11, rHuman Notch-1/Fc Chimera, CF (R&D Systems Cat#3647-TK) (human, UniProt P46531 19-526); assay: ECL (MSD multi-spot), antigen on plate, Fab 2 nM
T11 construct: Bought Fc chimera; not shown: Fc of the bought chimera

[12] = target: T12, Recombinant Human DLL4 (R&D Systems Cat#1506-D4/CF) (human, UniProt Q9NR61 27-524); assay: ECL (MSD multi-spot), antigen on plate, Fab 2 nM
T12 construct: Bought recombinant protein; also called delta-like protein 4

[13] = target: T13, rHuman CD44/Fc Chimera, CF (R&D Systems Cat#3660-CD) (human, UniProt P16070 21-220); assay: ECL (MSD multi-spot), antigen on plate, Fab 2 nM
T13 construct: Bought Fc chimera; not shown: Fc of the bought chimera

[14] = target: T14, rHuman HGF R/c-MET/Fc Chimera, CF (R&D Systems Cat#358-MT/CF) (human, UniProt P08581 25-932); assay: ECL (MSD multi-spot), antigen on plate, Fab 2 nM
T14 construct: Bought Fc chimera; also called HGF R/Fc; not shown: Fc of the bought chimera

[15] = target: T15, rHuman ErbB2/Fc Chimera, CF (R&D Systems Cat#1129-ER) (human, UniProt P04626 23-652); assay: ECL (MSD multi-spot), antigen on plate, Fab 2 nM
T15 construct: Bought Fc chimera; also called HER2/neu; not shown: Fc of the bought chimera

[16] = target: T16, rHuman P-Cadherin/Fc Chimera, CF (R&D Systems Cat#861-PC) (human, UniProt P22223 108-654); assay: ECL (MSD multi-spot), antigen on plate, Fab 2 nM
T16 construct: Bought Fc chimera; also called CDH3; not shown: Fc of the bought chimera

[17] = target: T17, rHuman Erythropoietin R/Fc Chimera, CF (R&D Systems Cat#963-ER) (human, UniProt P19235 25-250); assay: ECL (MSD multi-spot), antigen on plate, Fab 2 nM
T17 construct: Bought Fc chimera; also called EPO R/Fc; Epo R; not shown: Fc of the bought chimera
T17 sequence: T2 sequence

[18] = target: T18, rHuman EGF R/Fc Chimera, CF (R&D Systems Cat#344-ER) (human, UniProt P00533 25-645); assay: ECL (MSD multi-spot), antigen on plate, Fab 2 nM
T18 construct: Bought Fc chimera; also called ErbB-1; not shown: Fc of the bought chimera

[19] = target: T10, rHuman IGF-1 sR (insulin-like growth …); assay: ECL (MSD multi-spot), antigen on plate, Fab 10 nM
[20] = target: T13, rHuman CD44/Fc Chimera, CF (R&D Systems …); assay: ECL (MSD multi-spot), antigen on plate, Fab 10 nM
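Further: blank spot per well as comparator with Hit at signal to blank ratio of 4 or more.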

ECL signal [1]: 17200 | ECL signal [2]: 378 | ECL signal [3]: 372 | ECL signal [4]: 617 | ECL signal [5]: 353 | ECL signal [6]: 335 | ECL signal [7]: 403 | ECL signal [8]: 306 | ECL signal [9]: 321
B1: Fab VH1-46_IGHD6-6*01_IGHJ1*01 & L6_IGKJ1*01 (Fab, V domains shown)
VH: QVQLVQSGAEVKKPGASVKVSCKASGYTFTSYYMHWVRQAPGQGLEWMGIINPSGGSTSYAQKFQGRVTMTRDTSTSTVYMELSSLRSEDTAVYYCAREEYSSSSAEYFQHWGQGTLVTVSS
VL: not shown
notes: Expressed in E. coli as Fab: heavy chain with CH1 plus Flag and His tags from Plasmid A, kappa light chain constant region from Plasmid C; also called Fab No. 1

ECL signal [10]: 205 ECL signal | ECL signal [11]: 307 ECL signal | ECL signal [12]: 6100 ECL signal | ECL signal [13]: 266 ECL signal | ECL signal [14]: 255 ECL signal | ECL signal [15]: 176 ECL signal | ECL signal [16]: 223 ECL signal | ECL signal [17]: 251 ECL signal | ECL signal [18]: 352 ECL signal
B2: Fab VH1-46_IGHD6-6*01_IGHJ1*01_S102A_S103P_S104F & L6_IGKJ1*01_S28P (Fab, V domains shown)
VH: B1 VH with S102A, S103P, S104F
VL: EIVLTQSPATLSLSPGERATLSCRASQPVSSYLAWYQQKPGQAPRLLIYDASNRATGIPARFSGSGSGTDFTLTISSLEPEDFAVYYCQQRSNWPPWTFGQGTKVEIKR
notes: Fab

ECL signal [19]: 233 ECL signal | ECL signal [20]: 286 ECL signal
B3: Fab VH1-46_IGHD6-6*01_IGHJ1*01_S102A_S103P_S104F & L6_IGKJ1*01_S30N (Fab, V domains shown)
VH: B1 VH with S102A, S103P, S104F
VL: B2 VL with P28S, S30N
notes: Fab
